{"source": "the Human Domainome abundance scans (Beltran et al. 2025)", "parents": {"B1": {"name": "SWI/SNF-related matrix-associated actin-dependent regulator of chromatin subfamily B member 1, residues 181 to 248; numbered along this chain, Q12824 (parent)", "chain": "SQPEVLVPIRLDMEIDGQKLRDAFTWNMNEKLMTPEMFSEILCDDLDLNPLTFVPAIASAIRQQIESY"}}, "note": "± gives the uncertainty stated by the source.", "data": [{"variants_of": "B1", "assay": "abundance fitness (aPCA) (normalised: wild type 0, dead -1); higher = more abundant; growth selection in yeast, the domain comes from the species named", "details": "Homo sapiens", "values": [{"variant": "E4W", "abundance fitness": "-0.599 ± 0.1"}, {"variant": "E40S", "abundance fitness": "-0.114 ± 0.045"}, {"variant": "E66Q", "abundance fitness": "-0.432 ± 0.18"}, {"variant": "L20G", "abundance fitness": "-0.677 ± 0.18"}, {"variant": "R62P", "abundance fitness": "-0.718 ± 0.2"}, {"variant": "E14S", "abundance fitness": "-0.071 ± 0.12"}, {"variant": "A56K", "abundance fitness": "-0.041 ± 0.13"}, {"variant": "L11C", "abundance fitness": "-0.848 ± 0.33"}, {"variant": "G17E", "abundance fitness": "-0.931 ± 0.18"}, {"variant": "Q64E", "abundance fitness": "-0.338 ± 0.068"}, {"variant": "G17N", "abundance fitness": "-0.714 ± 0.49"}, {"variant": "A60V", "abundance fitness": "-0.286 ± 0.047"}, {"variant": "V7K", "abundance fitness": "-0.906 ± 0.17"}, {"variant": "E4A", "abundance fitness": "-0.166 ± 0.062"}, {"variant": "P8Y", "abundance fitness": "-0.55 ± 0.12"}, {"variant": "T34R", "abundance fitness": "-0.876 ± 0.17"}, {"variant": "I57F", "abundance fitness": "-0.957 ± 0.15"}, {"variant": "V7F", "abundance fitness": "-0.547 ± 0.17"}, {"variant": "L42C", "abundance fitness": "-0.846 ± 0.2"}, {"variant": "E30W", "abundance fitness": "0.023 ± 0.32"}, {"variant": "G17H", "abundance fitness": "-0.66 ± 0.23"}, {"variant": "L11V", "abundance fitness": "-0.624 ± 0.24"}, {"variant": "I65M", "abundance fitness": "-0.477 ± 0.13"}, {"variant": "M28L", "abundance fitness": "0.087 ± 0.16"}, {"variant": "L42F", "abundance fitness": "-0.128 ± 0.21"}, {"variant": "A60Q", "abundance fitness": "0.068 ± 0.049"}, {"variant": "Q64K", "abundance fitness": "-0.97 ± 0.25"}, {"variant": "W26R", "abundance fitness": "-0.498 ± 0.18"}, {"variant": "C43K", "abundance fitness": "-0.613 ± 0.11"}, {"variant": "P8N", "abundance fitness": "-0.286 ± 0.14"}, {"variant": "L20I", "abundance fitness": "-0.013 ± 0.14"}, {"variant": "L46F", "abundance fitness": "-0.091 ± 0.09"}, {"variant": "I57E", "abundance fitness": "-0.749 ± 0.21"}, {"variant": "R62Y", "abundance fitness": "-0.119 ± 0.45"}, {"variant": "N49V", "abundance fitness": "-0.814 ± 0.076"}, {"variant": "P3M", "abundance fitness": "0.006 ± 0.085"}, {"variant": "S1R", "abundance fitness": "-0.307 ± 0.09"}, {"variant": "S1P", "abundance fitness": "-0.109 ± 0.083"}, {"variant": "V5W", "abundance fitness": "-0.312 ± 0.37"}, {"variant": "K31Q", "abundance fitness": "-0.085 ± 0.07"}, {"variant": "A23I", "abundance fitness": "-0.076 ± 0.17"}, {"variant": "L20V", "abundance fitness": "-0.01 ± 0.076"}, {"variant": "S67C", "abundance fitness": "0.003 ± 0.052"}, {"variant": "P3F", "abundance fitness": "0.05 ± 0.078"}, {"variant": "K31T", "abundance fitness": "0.084 ± 0.096"}, {"variant": "N49S", "abundance fitness": "-0.498 ± 0.058"}, {"variant": "S67I", "abundance fitness": "-0.078 ± 0.28"}, {"variant": "M13L", "abundance fitness": "-0.089 ± 0.22"}, {"variant": "E14W", "abundance fitness": "-0.96 ± 0.25"}, {"variant": "T25R", "abundance fitness": "-0.451 ± 0.045"}, {"variant": "R62S", "abundance fitness": "-0.386 ± 0.054"}, {"variant": "R10M", "abundance fitness": "-0.273 ± 0.28"}, {"variant": "M13T", "abundance fitness": "-0.638 ± 0.34"}, {"variant": "G17T", "abundance fitness": "-0.896 ± 0.24"}, {"variant": "N27Y", "abundance fitness": "-0.831 ± 0.28"}, {"variant": "M33G", "abundance fitness": "-0.797 ± 0.1"}, {"variant": "E4D", "abundance fitness": "-0.031 ± 0.088"}, {"variant": "P3H", "abundance fitness": "-0.097 ± 0.15"}, {"variant": "C43V", "abundance fitness": "-0.249 ± 0.035"}, {"variant": "I61W", "abundance fitness": "-0.989 ± 0.25"}, {"variant": "R21H", "abundance fitness": "0.164 ± 0.076"}, {"variant": "N49H", "abundance fitness": "-0.355 ± 0.14"}, {"variant": "I57Q", "abundance fitness": "-0.779 ± 0.18"}, {"variant": "G17D", "abundance fitness": "-0.745 ± 0.18"}, {"variant": "D16I", "abundance fitness": "-0.861 ± 0.22"}, {"variant": "C43A", "abundance fitness": "-0.467 ± 0.099"}, {"variant": "N49D", "abundance fitness": "-0.057 ± 0.046"}, {"variant": "L42D", "abundance fitness": "-0.869 ± 0.19"}, {"variant": "I9P", "abundance fitness": "-0.094 ± 0.43"}, {"variant": "N49C", "abundance fitness": "-0.356 ± 0.075"}, {"variant": "Q64T", "abundance fitness": "-0.658 ± 0.086"}, {"variant": "I57S", "abundance fitness": "-0.802 ± 0.096"}, {"variant": "V5K", "abundance fitness": "-0.051 ± 0.31"}, {"variant": "L6Y", "abundance fitness": "-0.346 ± 0.29"}, {"variant": "D44G", "abundance fitness": "-0.276 ± 0.16"}, {"variant": "P3N", "abundance fitness": "0.214 ± 0.098"}, {"variant": "D16V", "abundance fitness": "-1.02 ± 0.14"}, {"variant": "D16T", "abundance fitness": "-0.801 ± 0.16"}, {"variant": "L48W", "abundance fitness": "-0.888 ± 0.18"}, {"variant": "L32P", "abundance fitness": "-0.821 ± 0.21"}, {"variant": "M33Q", "abundance fitness": "-0.191 ± 0.076"}, {"variant": "N27T", "abundance fitness": "-0.552 ± 0.3"}, {"variant": "P8G", "abundance fitness": "-0.875 ± 0.13"}, {"variant": "A56Y", "abundance fitness": "-0.421 ± 0.092"}, {"variant": "L51E", "abundance fitness": "0.185 ± 0.089"}, {"variant": "L46G", "abundance fitness": "-0.37 ± 0.12"}, {"variant": "A58S", "abundance fitness": "-0.072 ± 0.17"}, {"variant": "Q63F", "abundance fitness": "-0.232 ± 0.1"}, {"variant": "P8A", "abundance fitness": "-0.676 ± 0.074"}, {"variant": "R10Q", "abundance fitness": "0.076 ± 0.083"}, {"variant": "L48N", "abundance fitness": "-0.664 ± 0.17"}, {"variant": "T34W", "abundance fitness": "-0.615 ± 0.41"}, {"variant": "V54P", "abundance fitness": "-0.593 ± 0.23"}, {"variant": "E40D", "abundance fitness": "-0.566 ± 0.089"}, {"variant": "A56M", "abundance fitness": "-0.416 ± 0.11"}, {"variant": "L46N", "abundance fitness": "-0.271 ± 0.17"}, {"variant": "Q63L", "abundance fitness": "-0.276 ± 0.045"}, {"variant": "V5I", "abundance fitness": "-0.438 ± 0.23"}, {"variant": "Q64A", "abundance fitness": "-0.354 ± 0.083"}, {"variant": "I65W", "abundance fitness": "-0.817 ± 0.16"}, {"variant": "D44A", "abundance fitness": "0.271 ± 0.22"}, {"variant": "Q64L", "abundance fitness": "-0.52 ± 0.056"}, {"variant": "D16H", "abundance fitness": "-0.247 ± 0.057"}, {"variant": "R21Y", "abundance fitness": "-0.227 ± 0.085"}, {"variant": "Y68D", "abundance fitness": "-0.521 ± 0.12"}, {"variant": "L46A", "abundance fitness": "-0.125 ± 0.051"}, {"variant": "T34S", "abundance fitness": "-0.205 ± 0.073"}, {"variant": "D47V", "abundance fitness": "-0.542 ± 0.073"}, {"variant": "L42N", "abundance fitness": "-0.549 ± 0.11"}, {"variant": "R62M", "abundance fitness": "-0.619 ± 0.11"}, {"variant": "I61M", "abundance fitness": "-0.461 ± 0.089"}, {"variant": "G17C", "abundance fitness": "-0.545 ± 0.12"}, {"variant": "E30A", "abundance fitness": "-0.619 ± 0.34"}, {"variant": "V7P", "abundance fitness": "-0.753 ± 0.18"}, {"variant": "M28P", "abundance fitness": "-0.5 ± 0.21"}, {"variant": "L42R", "abundance fitness": "-0.211 ± 0.045"}, {"variant": "I15C", "abundance fitness": "-0.702 ± 0.19"}, {"variant": "N27S", "abundance fitness": "-0.582 ± 0.31"}, {"variant": "E14G", "abundance fitness": "-0.819 ± 0.16"}, {"variant": "A56C", "abundance fitness": "-0.384 ± 0.066"}, {"variant": "V54F", "abundance fitness": "-0.739 ± 0.32"}, {"variant": "I65R", "abundance fitness": "-0.543 ± 0.14"}, {"variant": "N49E", "abundance fitness": "-0.292 ± 0.053"}, {"variant": "F53L", "abundance fitness": "-0.813 ± 0.34"}, {"variant": "T25P", "abundance fitness": "-0.314 ± 0.084"}, {"variant": "L42T", "abundance fitness": "-0.854 ± 0.13"}, {"variant": "L11S", "abundance fitness": "-0.751 ± 0.37"}, {"variant": "I57K", "abundance fitness": "-0.931 ± 0.14"}, {"variant": "L6V", "abundance fitness": "-0.221 ± 0.18"}, {"variant": "R21V", "abundance fitness": "0.115 ± 0.04"}, {"variant": "I41E", "abundance fitness": "0.131 ± 0.043"}, {"variant": "E40Q", "abundance fitness": "0.005 ± 0.065"}, {"variant": "P8C", "abundance fitness": "-0.736 ± 0.13"}, {"variant": "N27G", "abundance fitness": "-0.622 ± 0.22"}, {"variant": "M33T", "abundance fitness": "-0.279 ± 0.21"}, {"variant": "E4C", "abundance fitness": "-0.32 ± 0.063"}, {"variant": "L6A", "abundance fitness": "-0.219 ± 0.24"}, {"variant": "Q18H", "abundance fitness": "-0.136 ± 0.33"}, {"variant": "E66Y", "abundance fitness": "-0.09 ± 0.068"}, {"variant": "T25C", "abundance fitness": "-0.08 ± 0.063"}, {"variant": "D22R", "abundance fitness": "0.284 ± 0.15"}, {"variant": "M13G", "abundance fitness": "-0.718 ± 0.25"}, {"variant": "V54M", "abundance fitness": "-0.335 ± 0.28"}, {"variant": "Q63A", "abundance fitness": "-0.057 ± 0.043"}, {"variant": "E66W", "abundance fitness": "-0.313 ± 0.072"}, {"variant": "R62Q", "abundance fitness": "-0.192 ± 0.083"}, {"variant": "A60W", "abundance fitness": "-0.71 ± 0.22"}, {"variant": "L6Q", "abundance fitness": "-0.217 ± 0.29"}, {"variant": "D16F", "abundance fitness": "-0.928 ± 0.31"}, {"variant": "D44S", "abundance fitness": "0.043 ± 0.1"}, {"variant": "L48Y", "abundance fitness": "-0.649 ± 0.21"}, {"variant": "P50W", "abundance fitness": "-0.845 ± 0.14"}, {"variant": "E40M", "abundance fitness": "-0.149 ± 0.073"}, {"variant": "S67K", "abundance fitness": "-0.2 ± 0.14"}, {"variant": "L6M", "abundance fitness": "0.141 ± 0.083"}, {"variant": "D47W", "abundance fitness": "-0.507 ± 0.12"}, {"variant": "Q18V", "abundance fitness": "0.107 ± 0.083"}, {"variant": "D16W", "abundance fitness": "-0.822 ± 0.15"}, {"variant": "P3Q", "abundance fitness": "0.178 ± 0.061"}, {"variant": "L46Y", "abundance fitness": "-0.038 ± 0.099"}, {"variant": "L48R", "abundance fitness": "-0.989 ± 0.21"}, {"variant": "N49W", "abundance fitness": "-0.783 ± 0.13"}, {"variant": "A60L", "abundance fitness": "-0.72 ± 0.082"}, {"variant": "P50D", "abundance fitness": "-0.986 ± 0.2"}, {"variant": "D22L", "abundance fitness": "0.001 ± 0.12"}, {"variant": "N29D", "abundance fitness": "-0.212 ± 0.24"}, {"variant": "R10W", "abundance fitness": "-0.196 ± 0.1"}]}]}
